Test: soluble on expression in E. coli; label from the status in PepcDB or PDB records

Soluble on expression in E. coli, not soluble:
MGSDKIHHHHHHMRIEITPISESALVCRLNAPSELGKQQKLWAFAAALGQHDRIEEVVVGMNNLTVFTRFDTDLATLADELQYVWEHTAVTDHQGKLVEIPVCYGGEYGPDLAEVAAFHQTVISEIVRRHTAQTYTVFMMGFQPGFPYLGGLPEALHTPRRAVPRTSVPAGSVGIGGSQTGVYPFASPGGWQIIGRTELPLFRADLNPPTLLAAGDQVRFVAERIEP
MGSDKIHHHHHHMRILLVGHYPPHKGGVARHVKQLKECLEKRHEVYVLTYGTVAVEEENVYSVKVPNIFGIRGTSFALLASKKIVKLHEKYNFDLVHAHYVGTTSFAGVLAKRKTGVPLVITAHGSDLEFMSRLPLGGYFVKTSIMEADYVIAVSHYLAKKALELGASRISVIPNWTELSGESERKYILFLGRVASYKGIEDFIELAKRFPGEEFVVAGEGPLLKKLRAKSPPNVKFLGYVPAEDVLKKAKVLVLPSKREGFGLVVIEANSFKVPVLGRNVGGIRELIRFSKNGYLFEDIEDAITYLKTLLVPKTNVKLGSIGKRISKGHSQEKMCERVEEIYREVIS
MGSDKIHHHHHHMRIQFGYVAMSMELANASPSKTMTATQFEKIEDHEAGLRKLERIAKTNLHNCLRLLKHNLAYQISFFRLSSKLVPLVNHPLTEGWKYELAIAEELQAVGEFASEHQMRIDFHPDHFVVLNSEAKEITRRSLQTLLYHYKLLKGMEIDPRHRCVLHVGGKKKGVEAGLEQFIENTASIPKSLLSMIMLENDDKSYTIDDVLYLGEKLAIPVVLDIHHHDVLHRSKSLQETWQRIVATWEDSPLPVKIHLSSPLSGEDDPRHHDYINADRFIAFLHEIGADAVDHLHVMIEAKKKDLALFQLMKDLAEYDEITVVSKSAVEFNP
MGSDKIHHHHHHMRKIPPLRALQVFEAAARLQHFSRAAQELCITQSAVSHQVRLLEEHFALPLFRREGRSLRLTDKGEQLFQETARIFNELGELNLRLLGEKPEALRLAVYSSFAVKWLIPRLSGFRRLHPGIQVRLDMITEDPVLSHSSADMFITGQQDQKGYWQQLLHAERLIPVCSPELISSSDKLDLDWLSTQQLLTVDEGPLGLDWQRWFEHHRVAQPEEEQQQLFSHVLMAIEAAIAGQGVALASDFMVLDDIAKQRLVALPFAGIDTGFEFNFLCKQRRLQEPAIAAFVHWLTQQH
MGSDKIHHHHHHMRKPKITVIGGGTGSPVILKSLREKDVEIAAIVTVADDGGSSGELRKNMQQLTPPGDLRNVLVAMSDMPKFYEKVFQYRFSEDAGAFAGHPLGNLIIAGLSEMQGSTYNAMQLLSKFFHTTGKIYPSSDHPLTLHAVFQDGTEVAGESHIVDHRGIIDNVYVTNALNDDTPLASRRVVQTILESDMIVLGPGSLFTSILPNIVIKEIGRALLETKAEIAYVCNIMTQRGETEHFTDSDHVEVLHRHLGRPFIDTVLVNIEKVPQEYMNSNRFDEYLVQVEHDFVGLCKQVSRVISSNFLRLENGGAFHDGDLIVDELMRIIQVKK
MGSDKIHHHHHHMRLLSQVNLNSLKIVESAARHGNFTRAGEEQFITASAVSQRVKSLEDQLRFKIFQRGGNAVSLTPEGETYVSRVREALERIVAASMEATGQSQEHVLKISVLPTFAARWLFPRLPEFQRRYPDIVMRVSTSYATHEFSTSDFDLEIRYGDGHFNGLPSDLLFREDLTPVCSRKLFHEVLGDKPVSKVEPDDLRHFTLLHSDTCTQNWQSWLGFAGASFVLSETKSIYFDSCMMSYEAANAGMGFAVANRAYMASDIRAEKLVAPFAVHHPNSAGWYFVSPHKCLAARKVLLFKQWVMAEAALTQRQLDSEIRDLATEAV
MGSDKIHHHHHHMRLSNGDVIVFAGDSITDREKSNNAPLGYGYVNLFYNLMLAKHPETKITVINSGISGNTVIDLIDRWDDDVLSYKPNWISILIGINDLHKFLGGLTTFNPENYYENLRRLLKYTRKVLNNVNFILMTPFYISRNKLEGGFRAKVLELLPQYIEKVRLLSNEFSATYIDLHDTFKKLVNIREPNVYAPEPVHPNFTGHMVIALKLLEALEI
MGSDKIHHHHHHMRNKIEKGVDLNLRQFIKSLGYIAGGTALLASTPWLSSCTPEKLKEIRNEKARIALIGTGSRGQYHIHNLKEIPHARIVAVCDNYAPNLQQAVELCPGAKAYTDYRKLLESADIDGVIISTPLNWHAPIVLDALAAGKHVFCEKAMARTLDECKAIYDAYQTTNQVLYFCMQRMYDEKYIKGMQMIHSGLIGDVVGMRCHWFRNADWRRPVPSPELEHQINWRLYKESSGGLMTELACHQLEVCNWAAKRMPVSIIGMGDIVYWKDGREVYDSVNVTYRYSDGTKIAYESLISNKFNGMEDQILGHKGTMEMAKGIYYLEEDHSTSGIRQLIGQVKDKVFAAIPTAGPSWRPETKMEYTPHFVIEGDINVNNGLSMIGADKDGSDIILSSFCQSCITGEKAQNVVEEAYCSTVLCLLGNQAMEEERHILFPDEYKIPYMKF
MGSDKIHHHHHHMRNLGNTNMKIKRVGFGGIPIQRITQDDTNLVINELEKQGINFIDSARGYTISEEAIGIAIEGKRDKFFLATKSMSRDYDSMKRDVEISLNNFKTDFIDLYQFHNVKEEEYDNLFKDKMAYSALLEAKEQGKIKHIGITSHNLNTIEKAIEDGKFDTIQFPYNIVEGQADEVFKKAHEKGIGIIVMKPLAGGALDNATLAIKYILSKDYIDVVIPGMESVEQVRQNVAVLENLVLDEKDNKEIEEIRNSLGKKFCRRCEYCMPCAVGINIPLSFLCEGYYTRYGLKEWAKEKYEVMDVKPTECIDCGLCESRCPYELPIREMLKTVVEKLG
MGSDKIHHHHHHMRNPIHKRLEKFESWKNITFMLCLCERMYPNFYLFCQMTEQMDKAKIYQNILNLVWEYLTVKNAKINFENQLEKLENIIPDVNNYEFFGVVPALDACEGLSELLHAIIAGETLEKAIKISQLSLQTVITLLETQQDKAFSEAELKQSEEIELELDVQWQIYRTLNAHEERDIRLILDLKNELRESRVSNIGIEIAQ
MGSDKIHHHHHHMRNTDTYSYLVRDGHDLVHDPVPGILGPRPIGWISTCDSSGRPRLQTYSFFGIFNYVPPIVGFASVGGTESVNNAELTGEFAYNLATRPLAGCVNQTIVPALTEMDEFERSGLTKIRSIAIAAPRVAESPVSLECRVTSIQQLNGLDSEALNTWLVLGEVVAVHINRELLCDGFYDTVAAQPILRGGGACDYFEVLQAGKFRMTHPR
MGSDKIHHHHHHMRRKIPSTAALICFEAAARNESFTKAAQELALTQGAVCRQIGGLEAFLNVELFRRSRRGVRLTEAGLSYSRQVAAQLDAVERDTLSVMRQQGANVIELAVVPTFGTQWLLPRLKDFQQRHPEVTVNLTNRTRPFLFADTTFDAAIYFGDADWSGTQSHQLMGENPVPVCSPALLNGQGMLEARHIAQLPLLQQSTRPYAWRQWFGSVGMNVERDMTGPRYELFSMLAQAAMHDMGIALIPPFLIQRELEEGRLVVANRHALSSDKAYYLMIPERKVESASLRAFRDWLVSQAQAYINSSGTNAAN
MGSDKIHHHHHHMRTICVFNNKGGVGKTTLLCNLAAYFSIKRGKKVLVVDADPQCNATAYMIKEKVLDKLYASSSSDSATINSLIASLKKSKGYGIPPVLRSDGFNVDIVPGDPKFSLAEDFLAKDWLDAIAGDERGLRTTFFFRNLISWARSDGYDLVFFDMGPSLGAINRTVLLSSDHFILPMSSDIFSLRGLQNIEVALKNWTKGIERGLVSFKEDQGTSFKVESGDALSELGVSFLGYVTQQYTAKTVDGKKQPVSAYEKIIKKIDPLVSKHLILPLNKGQKLNYKLGEIPYFQSLVPMAQTATVPIFALKKADGVVGAHFDKVRQFDSVISGIVDKIEANMNSKGN
MGSDKIHHHHHHMRTNKVVWSEGLFLRPQLFQQQERYLEYYAHKRAATITPFFWGFAQYEIDREALSYGKLVLRSGKGVLPDGTPFDIPGHAELPEPLTITPDHLGKLIYLAVPLRLDNSDETIFDEYDMSSLARFYAYEADLSDTNAIRQGPKPVQLSRLRLKLVSESEMTESWIGLPLAKVRAIQPDGSVLLHLEDYIPPVTGYAASSLLSEWLTHLNGLVKMRADMLAKRLSNSDGKASASAEIVDYLLLQIFNKYEPSLDHLRNIPELPPIVLYQELAKFAGELSTFIRTKTRRPRPAPGYDHGKLYPSIRPLVDDVHELLNQILVRAGQMIPLEPKGNGVWSASVLPNELRSFSNLVLAVHAQLPMDVLQHQFSVQTKISAPQQLHELVRSHLPGLELQRLPVPPRQIPYSAGYVYFELMKSGPFWDKVSNAGAIALHVAGDFPALKMELWGIRDS
MGSDKIHHHHHHMRTRDMLPILETLDESGIYSLEVWGGATFDACHRFLNENPWERLREIRKRVKNAKLQMLLRGQNLVGYRHYPDDIVEKFVQKTIENGLDVFRIFDALNDVRNLISSIKAAKKYNADHIQGTICYTISPVHTVEKYVEIANELAALEVDSICLKDMAGMLSPKMAYELVKALKKEVGLPINVHSHYTSGMASMALLKGVEAGAEMIDTCMSPLSSGTSHPPTESMVYALNELGYDTGVKLDILLEAREYFMKIREKYSGYLNPLSTIPDTRVLVYQIPGGMFSNLIAQLQEQNALDRLQEVLEEVPRVREDLGYPPLVTPTSQIVGVQAVINVLVGERYKVVTRETKDLVKGMYGRTPAPIKPEIVKKILGDEKPIDCRPADLLEPEFEKRKQELIEAGIENPSDEDVLLYALFPQTGLKFLKGEMVEEPFPVAGGKIEGSFEVEIDGQKYVVKVAPEK
MGSDKIHHHHHHMRVFVARQPIFNRKEQVVAYELLYRESEENVYSAKDGDQATTDLVINSFLNIGIEKLTEGKRCFVNFTESLMFSNLPTSFNPKQLVIEILEDIPITPALISRCKELKKMGYMLALDDFYAINPQDEDLLEKLMSYIDILKIDFLKTTRMERRTILQTYGCRGLIFLAEKVETRKEYKQAVQDGFQLFQGYFFSEPRIISGHDLSTHFYSYYELLNELSKEQPNIKRVTEYIERDLSLSYQILKFLNSSHSRLSQKIESIQQAIMLLGFNEIKRWIYILSFKDLSRKGHSSKHEIIKISLIRAKLCELLARKTSRPQPASYMLIGMFSLIDTLLHREIEEIVQELPLKDEVGQALLGHQNDYYQMLELVKLIESNNWDTCSELGNQLDKEEAYECYLEALEWCHNLMDAK
MGSDKIHHHHHHMRVGLTLYGSLDEQSGGFRYDRKLVEGLRAAGDTVECIQLPWRDYHRGLLDNGSRKLRQRLDVDVDVMLQDELAHPSLVRTNRALSYPIVSIVHHLRASEPRRLAPLYRAVERRYLGTVQAVVCNSATTRNVVTNLGVDPEDTVVAPPAGDQFDPDIDRATIERRATTEPLQVVFVGNVSPRKGLDTLVDGVAAAAVDIDLTVVGRHVDAAHVTSVQERVREHDLADRVQFAGRLPDGELAKTLRSSHVLAVPSRYEGFGIVYLEGMSFGLPALATRAGGAADIVTDDETGVLVDPDDSAAVARELERFATDRDRLAEMGWAARRNYETHPDWEETVGRVRDLLSDIVQPTEVPA
MGSDKIHHHHHHMRVKYPSIPHLPWSPGLQNDDRRITSLSGFIGKEVVVTEKLDGENTSLYRDDLHARSLDMRPHPSRTWVKAERGRVAHDIPLGWRFCGENVYAVHSLKYDDLDGYFYLFSVWDDLNVSRPWDEVRGWAERLSLPTPRELYRGPWDEAALQALDPDPERMEGYVVRVTAAIPYADFGRKVAKWVRRGHVQTDQHWLSQPVEPNGLKRQEQS

Source: the DeepSol protein solubility set
